Results as given in patent US20260146107A1 (ALLIGATOR BIOSCIENCE, published 2026).

What was measured:
[1] = molecular target: T1, human CEACAM5, recombinant (R&D Systems #4128-CM-050) (human, UniProt P06731 35-685); assay: Octet BLI, captured bsAb, monomeric CEACAM5 in solution, 1:1 fit
T1 construct: Bought; coated in ELISA and used as monomeric analyte in Octet; also called hCEACAM-5; Human CEACAM5-His; not shown: His tag
T1 sequence (looked up): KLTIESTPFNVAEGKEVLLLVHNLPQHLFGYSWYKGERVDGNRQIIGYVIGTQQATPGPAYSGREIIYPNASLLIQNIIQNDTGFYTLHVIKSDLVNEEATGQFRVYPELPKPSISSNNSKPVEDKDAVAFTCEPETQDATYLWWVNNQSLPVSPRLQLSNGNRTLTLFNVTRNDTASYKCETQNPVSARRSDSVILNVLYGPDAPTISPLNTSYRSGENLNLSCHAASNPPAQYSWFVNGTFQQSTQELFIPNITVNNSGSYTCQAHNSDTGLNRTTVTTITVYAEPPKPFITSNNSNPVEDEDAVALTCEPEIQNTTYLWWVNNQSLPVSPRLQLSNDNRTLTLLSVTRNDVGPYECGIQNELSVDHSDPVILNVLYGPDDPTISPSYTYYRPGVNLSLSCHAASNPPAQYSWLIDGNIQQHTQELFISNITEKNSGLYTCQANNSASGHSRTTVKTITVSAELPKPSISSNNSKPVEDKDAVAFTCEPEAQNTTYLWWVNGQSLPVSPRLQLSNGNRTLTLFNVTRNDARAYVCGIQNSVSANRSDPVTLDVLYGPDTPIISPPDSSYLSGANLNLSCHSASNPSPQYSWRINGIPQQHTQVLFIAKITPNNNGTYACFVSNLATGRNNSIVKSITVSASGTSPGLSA
Method: (§1) Kinetic measurements were performed in the Octet RED96 platform using several different setups. […] Monomeric human CD40-His-Avi tag (Acro Biosystems #CD0-H5228), monomeric Human CEACAM5-His (R&D Systems #4128-CM-050) or monomeric Cynomolgus CEACAM5-His (Sino Biological #90891-C08H) were ½ serially diluted in 1× kinetic buffer (Sartorius) starting at 500 nM or 100 nM. […] Binding kinetics was studied in 1× kinetic buffer where association was allowed for 100 sec, 300 sec or 600 sec followed by dissociation for 100 sec, 300 sec or 3600 sec. Sensor tips were regenerated with 10 mM Glycine pH 1.7. Data generated were referenced by subtracting blank or parallel buffer blank, the baseline was aligned to the y-axis, inter-step correction by alignment against dissociation was performed and the data was smoothed by Savitzky-Golay filter in the data analysis software (v9.0.0.14). The processed data was fitted using a 1:1 Langmuir binding model with R² or X² as a measurement of fitting accuracy.
Association was measured for 100 sec and dissociation was measured for 100 sec.

[2] = molecular target: T1, human CEACAM5, recombinant (R&D Systems …); assay: ELISA, antigen coated at 0.5 µg/mL, bsAb titrated, anti-human kappa-HRP, luminescence
Method: (§2) 96-well plates were coated with 0.5 μg/mL antigen, hCEACAM-1 (2244-CM-050, R&D Systems), hCEACAM-5 (4128-CM-050, R&D Systems), hCEACAM-6 (3934-CM-050, R&D Systems) or CEACAM-8 (9639-CM-050, R&D Systems) in PBS over night at 4° C. After washing in PBS/0.05% Tween 20 (PBST), the plates were blocked with PBST, 2% BSA for at least 30 minutes at room temperature before a second round of washing. RUBY bsAbs, diluted in PBST, 0.5% BSA, were then added and allowed to bind for at least 1 hour at room temperature. […] Finally, a final round of washing was performed and bound complexes detected using SuperSignal Pico Luminescent as substrate and luminescence signals were measured using Fluostar Optima.

[3] = molecular target: T1, human CEACAM5, recombinant (R&D Systems …); assay: dual-target ELISA: hCEACAM-5 coated, bsAb titrated, detected with biotinylated hCD40-muIg and streptavidin-HRP, luminescence; signal needs both targets bound
Method: as §2

[4] = molecular target: human CD40 expressed on cells (CD40 reporter cells, HEK Blue CD40L cells, primary B cells, tumour APCs) (human, UniProt P25942 21-277); assay: cell-based or functional assay
[5] = molecular target: T1, human CEACAM5, recombinant (R&D Systems …); assay: Octet BLI, captured bsAb, soluble antigen, 1:1 fit
Method: as §1
Association was measured for 100 sec and dissociation for 300 sec.

[6] = molecular target: T2, biotinylated human CEACAM5-His (Acro Biosystems #CE5-H82E0) (human, UniProt P06731 35-685, biotinylated (site not stated)); assay: Octet BLI, captured CEACAM5-biotin, bsAb in solution, 1:1 fit
T2 construct: also called CEACAM5-biotin; captured human CEACAM5-biotin; not shown: His tag
T2 sequence (looked up): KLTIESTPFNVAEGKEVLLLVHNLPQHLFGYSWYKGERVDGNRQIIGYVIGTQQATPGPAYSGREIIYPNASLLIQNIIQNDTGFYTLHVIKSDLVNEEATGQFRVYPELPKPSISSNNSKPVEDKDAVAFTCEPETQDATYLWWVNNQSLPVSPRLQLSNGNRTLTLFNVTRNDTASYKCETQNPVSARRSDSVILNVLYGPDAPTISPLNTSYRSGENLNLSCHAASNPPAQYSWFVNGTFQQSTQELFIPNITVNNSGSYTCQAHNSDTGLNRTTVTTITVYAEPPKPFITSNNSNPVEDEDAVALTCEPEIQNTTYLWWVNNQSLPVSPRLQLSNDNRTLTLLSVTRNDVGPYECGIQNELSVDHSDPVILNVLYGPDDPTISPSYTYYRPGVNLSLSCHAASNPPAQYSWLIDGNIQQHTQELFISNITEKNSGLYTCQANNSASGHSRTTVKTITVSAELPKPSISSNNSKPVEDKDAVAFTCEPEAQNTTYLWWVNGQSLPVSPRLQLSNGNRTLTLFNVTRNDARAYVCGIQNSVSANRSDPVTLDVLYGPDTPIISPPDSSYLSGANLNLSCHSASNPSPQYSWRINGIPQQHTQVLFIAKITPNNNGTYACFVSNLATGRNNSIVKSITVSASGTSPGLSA
Method: as §1
Association was measured for 100 sec and dissociation measured for 100 sec.

Sequence of human CD40 expressed on cells (CD40 reporter cells, HEK Blue CD40L cells, primary B cells, tumour APCs) (P25942 21-277): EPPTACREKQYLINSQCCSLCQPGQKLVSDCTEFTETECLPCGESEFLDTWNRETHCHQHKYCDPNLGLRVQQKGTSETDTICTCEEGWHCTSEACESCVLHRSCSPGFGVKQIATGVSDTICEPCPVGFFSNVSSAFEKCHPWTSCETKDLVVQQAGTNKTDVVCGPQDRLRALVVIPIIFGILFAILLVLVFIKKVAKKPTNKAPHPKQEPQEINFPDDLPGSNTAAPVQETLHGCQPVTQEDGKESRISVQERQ

| Binder | Kd [1] | koff [1] | kon [1] | EC50 (read off the curve) [2] | EC50 (read off the curve) [3] | EC50 of SEAP release, HEK Blue CD40L reporter cells, bsAb crosslinked to CHO-CEACAM5 cells, 0 Raji sink cells/well [4] | EC50 of SEAP release, same assay, 10 000 Raji sink cells/well [4] | EC50 of SEAP release, same assay, 30 000 Raji sink cells/well [4] | EC50 of SEAP release, same assay, 90 000 Raji sink cells/well [4] | Kd [5] | koff [5] | kon [5] | Kd [6] | koff [6] | kon [6] |
| --- | --- | --- | --- | --- | --- | --- | --- | --- | --- | --- | --- | --- | --- | --- | --- |
| Multi48 (bispecific antibody, Optimised RUBY format, CD40xCEACAM5) heavy 1: not shown light: DIQMTQSPSSLSASVGDRVTITCRASQSISSYLNWYQEKPGKAPKLLIYAASSLQSGVPSRFSGSGSGTDFTLTISSLQPEDFATYYCQQYGRNPPTFGQGTKLEIKRTVAAPSVFIFPPSDEQLKSGTASVVCYLNNFYPREAKVQWKVDNALQSGNSQESVTEQDSKDSTYSLWSTLTLSKADYEKHKVYACEVTHQGLSSPVTKSFNRGEC heavy 2: EVQLLESGGGLVQPGGSLRLSCAASGFTFGDHAMSWVREAPGKGLEWVSAISGYGHSTGYADSVKGRFTISRDNSKNTLYLQMNSLRAEDTAVYYCARNHYRVGLDYWGQGTLVTVSSASTKGPSVFPLAPSSKSTSGGTAALGCLVKDYFPEPVTVSWNSGALTSGVHTFPAVLQSSGLYSLTSVVEVPSSSLGTQTYICNVNHKPSNTKVDKKVEPKSC | < 0.001 nM | < 1e-07 s⁻¹ | 24000 M⁻¹ s⁻¹ | ~3 nM | – | – | – | – | – | – | – | – | – | – | – |
| Multi49 (bispecific antibody, Optimised RUBY format, CD40xCEACAM5) heavy 1: not shown light: DIQMTQSPSSLSASVGDRVTITCRASQSISSYLNWYQEKPGKAPKLLIYAASSLQSGVPSRFSGSGSGTDFTLTISSLQPEDFATYYCQQYGRNPPTFGQGTKLEIKRTVAAPSVFIFPPSDEQLKSGTASVVCYLNNFYPREAKVQWKVDNALQSGNSQESVTEQDSKDSTYSLWSTLTLSKADYEKHKVYACEVTHQGLSSPVTKSFNRGEC heavy 2: EVQLLESGGGLVQPGGSLRLSCAASGFTFYDHAMSWVREAPGKGLEWVSAISGSYGSTGYADSVKGRFTISRDNSKNTLYLQMNSLRAEDTAVYYCARWGGWAGDIDYWGQGTLVTVSSASTKGPSVFPLAPSSKSTSGGTAALGCLVKDYFPEPVTVSWNSGALTSGVHTFPAVLQSSGLYSLTSVVEVPSSSLGTQTYICNVNHKPSNTKVDKKVEPKSC | < 0.001 nM | < 1e-07 s⁻¹ | 28000 M⁻¹ s⁻¹ | ~3 nM | – | – | – | – | – | – | – | – | – | – | – |
| AC_05339 (bispecific antibody, RUBY format, CEACAM5xCD40; also called AC_5339) heavy 1: not shown light: DIQMTQSPSSLSASVGDRVTITCRASQSISSYLNWYQEKPGKAPKLLIYAASSLQSGVPSRFSGSGSGTDFTLTISSLQPEDFATYYCQQAGNPHTFGQGTKLEIKRTVAAPSVFIFPPSDEQLKSGTASVVCYLNNFYPREAKVQWKVDNALQSGNSQESVTEQDSKDSTYSLWSTLTLSKADYEKHKVYACEVTHQGLSSPVTKSFNRGEC heavy 2: EVQLLESGGGLVQPGGSLRLSCAASGFTFSTYGMHWVREAPGKGLEWLSYISGGSSYIFYADSVRGRFTISRDNSENALYLQMNSLRAEDTAVYYCARILRGGSGMDLWGQGTLVTVSSASTKGPSVFPLAPSSKSTSGGTAALGCLVKDYFPEPVTVSWNSGALTSGVHTFPAVLQSSGLYSLSSVVEVPSSSLGTQTYICNVNHKPSNTKVDKKVEPKSC | 1.8 nM | 0.00042 s⁻¹ | 240000 M⁻¹ s⁻¹ | – | ~0.3 nM | 0.03 nM | 0.05 nM | 0.08 nM | 0.23 nM | < 0.001 nM | < 1e-07 s⁻¹ | 520000 M⁻¹ s⁻¹ | – | – | – |
| Multi44 (bispecific antibody, Optimised RUBY format, CEACAM5xCD40) heavy 1: not shown light: DIQMTQSPSSLSASVGDRVTITCRASQSISSYLNWYQEKPGKAPKLLIYAASSLQSGVPSRFSGSGSGTDFTLTISSLQPEDFATYYCQQWGYLLTFGQGTKLEIKRTVAAPSVFIFPPSDEQLKSGTASVVCYLNNFYPREAKVQWKVDNALQSGNSQESVTEQDSKDSTYSLWSTLTLSKADYEKHKVYACEVTHQGLSSPVTKSFNRGEC heavy 2: EVQLLESGGGLVQPGGSLRLSCAASGFTFSTYGMHWVREAPGKGLEWLSYISGGSSYIFYADSVKGRFTISRDNSKNTLYLQMNSLRAEDTAVYYCARILRGGSGMDLWGQGTLVTVSSASTKGPSVFPLAPSSKSTSGGTAALGCLVKDYFPEPVTVSWNSGALTSGVHTFPAVLQSSGLYSLTSVVEVPSSSLGTQTYICNVNHKPSNTKVDKKVEPKSC | 13 nM | 0.0023 s⁻¹ | 180000 M⁻¹ s⁻¹ | ~0.5 nM | ~0.8 nM | 0.02 nM | 0.05 nM | 0.08 nM | 0.16 nM | – | – | – | < 0.001 nM | < 1e-07 s⁻¹ | 150000 M⁻¹ s⁻¹ |
